Kd data for three molecules are collected here from US12215130 (dated 2025).

Read-outs that look alike come from different tables or passages of the source.

Test [1] deals with Human serum albumin (human). The test can be described thus: BLI, pH 7.4. (In general: Biolayer interferometry detects binding as a change in optical thickness at a sensor tip.)
Test [2] concerns the target T1, Cynomolgus monkey serum albumin (cynomolgus monkey).
T1 chain: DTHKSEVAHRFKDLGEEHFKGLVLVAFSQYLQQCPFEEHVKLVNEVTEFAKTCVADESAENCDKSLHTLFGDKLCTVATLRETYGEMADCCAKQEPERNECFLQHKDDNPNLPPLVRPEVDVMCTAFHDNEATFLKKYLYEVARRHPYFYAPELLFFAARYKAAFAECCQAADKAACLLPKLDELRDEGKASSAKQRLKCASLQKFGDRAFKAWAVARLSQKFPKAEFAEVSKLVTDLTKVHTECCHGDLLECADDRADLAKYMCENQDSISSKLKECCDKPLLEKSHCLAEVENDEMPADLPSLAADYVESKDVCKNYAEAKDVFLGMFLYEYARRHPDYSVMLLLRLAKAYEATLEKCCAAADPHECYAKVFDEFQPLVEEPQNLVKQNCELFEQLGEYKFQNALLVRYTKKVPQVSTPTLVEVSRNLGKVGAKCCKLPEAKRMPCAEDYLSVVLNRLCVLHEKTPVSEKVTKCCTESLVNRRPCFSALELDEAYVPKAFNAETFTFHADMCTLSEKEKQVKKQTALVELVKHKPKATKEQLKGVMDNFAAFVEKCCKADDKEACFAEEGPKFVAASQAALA
The test can be described thus: BLI, pH 7.4.

Test [3] concerns the target Human serum albumin (human). The test can be described thus: BLI, pH 5.5.
The target in test [4] is T1, Cynomolgus monkey serum albumin. The test can be described thus: BLI, pH 5.5.
The target in test [5] is Human serum albumin (human).

B1: AWT-P367 (antibody, V domains shown)
VH: QVQLVESGGGLVQPGGSLRLSCAASGSTWSINTLAWYRQAPGKQRDLVARISSGGSTHYADSVKGRFTVSRDNAENTLVLQMNSLKPEDTAVYYCYAQSTWYPPSWGQGTQVTVSS
Take B1: the Kd (commonly a measure of binding affinity in units of concentration) came out at 29.6 nM in test [1], 18.9 nM in test [2], 9.6 nM in test [3] and 20.5 nM in test [4].

B2: AWT-P610 (designed binder)
chain: QVQLVESGGGVVQPGGSLRLSCAASGFAFRGFGMSWVRQAPGKGLEWVSSINNGGSDTYYADSVKGRFTISRDNSKNTLYLQMNSLRAEDTAVYYCAIGGPGASPSGQGTQVTVSS
For B2, the Kd in test [1] worked out at 43 nM; in test [2] it was 49.6 nM; in test [3] it was 39.8 nM; in test [4] it was 47.1 nM.

As to LAEAKVLANRELDKYGVSDYYKNLINNAKTVEGVKALIDEILAALP [G148-ABD-wt], the Kd in test [5] is ~1.2 nM.
